This passage reports Kd results from publication PMC6294747, “Plasmodium falciparum infected erythrocytes can bind to host receptors integrins αVβ3 and αVβ6 through DBLδ1_D4 domain of PFL2665c PfEMP1 protein” (Scientific Reports, 2018).

In experiment [1] the target is T1, integrin αVβ3 (R&D Systems, Cat #3050-AV) (human, UniProt P06756 31-1048; P05106 27-718, biotinylated (for the bead assays; sites not stated) | biotinylated (for the bead assays; sites not stated)).
T1 construct: integrin alpha-V chain of soluble recombinant αVβ3; integrin beta-3 chain of soluble recombinant αVβ3; Molecular weight 191.3 kDa according to the manufacturer; Biotinylated when used in solution on beads; immobilised on Petri dishes for the adhesion assays; also called αVβ3 integrin; soluble recombinant αVβ3; source: bought: R&D Systems, Cat #3050-AV
The experiment in a line: Bio-Plex bead binding assay, initial velocities with Lineweaver-Burk plot; avidity constants; beads with immobilised PFL2665c DBLδ1_D4; biotinylated integrin at 3, 6 and 12 µg/ml, 0, 10, 30 min (αVβ3) or 0, 5, 15 min (αVβ6); 1xTBS, 1 mM CaCl2, 1 mM MgCl2; streptavidin-PE; corrected for HisAdEx. Conditions: both partners purified.

The target in experiment [2] is T2, integrin αVβ6 (R&D Systems, Cat #3817-AV) (UniProt P06756 31-1048; P18564 22-709, biotinylated (for the bead assays; sites not stated) | biotinylated (for the bead assays; sites not stated)).
T2 construct: integrin alpha-V chain of soluble recombinant αVβ6; integrin beta-6 chain of soluble recombinant αVβ6; Molecular weight 189.1 kDa according to the manufacturer; Biotinylated when used in solution on beads; immobilised on Petri dishes for the adhesion assays; also called recombinant αVβ6; source: bought: R&D Systems, Cat #3817-AV
The experiment is described as above. Conditions: both partners purified.

B1: DBLδ1_D4 domain of PFL2665c PfEMP1 (single domain) (domain or fragment)
chain: GDDLKQACSTKYGPKAPTSWKCVPSGVSTATSGEGGDAKSRERREAGVPTATSSGNTTGGGKDGATGGSICVPPRRRRLYVGGLTKWAKKYTGNTGESKSQEGVLQTKAVVDGKANAEGGGQKGARGPNGGTEGANSGKGAQQQQEQQQEQQQEQQQQQQQQQQQQPHSTDSSSSPPSSNPRDVDLRNAFVESAAIETFFLWDRYKKEKEKEKEDIEKNGQDTVAYTSSVEKDPQEELQRGDIPDGFLRQMFYTLGDYRDILYSGDKENGNKYMLVDDIKDISDKIKSILNSDVGQKTTAKQWWDDNGQHIWNGMIYALTYNTDTPSGDKPTQIDEVRAQLWDEKEKKPKKTDNDHDYTYENVELKEDDDQSGAKTPSASSGSNDPINNPQLSDFVEIPTYFRWLHEWGSDFCGTRKRMLGKIKHECRGDKVCSGYGENCDDQLKDNPSIFPSLNCPSCGTPCRYYKKWINTKKTEYDKQKSAYEQQQGKCEKENNGAEGNDHDKKFCTRIQNCNEAKDFLKTLGPCRTNDESGKGTLYFDDDTFKH
Regarding B1, the Kd was found to be 62 nM in experiment [1] and 56.4 nM in experiment [2].
